experiment: soluble on expression in E. coli; label from the status in PepcDB or PDB records

Sequence | soluble on expression in E. coli
MSLIRGVIGYTITPFTADGTLDLDALGTSIDSLIAGGVHAIAPLGSTGEGAYLSDSEWETVVRFSQARIAGRVPSVVSVSDLTTARTVQRARLAQACGATAVMVLPISYWKLTEAEVVAHYKAVGAAIDIPIMLYNNPGTSGTDLSVELILRILGEVPNVTMVKESTGDIQRMHRLFTATDGQVAFYNGCNPLTLEALVAGATGWCTAAPNLIPALNLALWDAVQQGDLAEARALFYRQYELLEYITRRGLPTTIKAGLKMLGQDVGAPRLPLQPLDAQGSNHLKSLLEGHHHHHH | soluble
MSLIVSTIASHSSLQILLGAKKEGFKTRLYVSPKRRPFYSSLPIVDDLVVAEEMTSILNDDGIVVPHGSFVAYLGIEAIEKAKARFFGNRRFLKWETTFELQDKALEGAGIPRVEVVEPEDAKPDELYFVRIEGPRGGSGHFIVEGSELEERLSTLEEPYRVERFIPGVYLYVHFFYSPILERLELLGVDERVLIADGNARWPVKPLPYTIVGNRAIALRESLLPQLYDYGLAFVRTMRELEPPGVIGPFALHFAYDGSFKAIGIASRIDGGSNADHWYSELYWGERLSMGRRIARELRLAEEEDRLEEVVTEGHHHHHH | soluble
MSLIWKRKITLEALNAMGEGNMVGFLDIRFEHIGDDTLEATMPVDSRTKQPFGLLHGGASVVLAESIGSVAGYLCTEGEQKVVGLEINANHVRSAREGRVRGVCKPLHLGSRHQVWQIEIFDEKGRLCCSSRLTTAILEGGSHHHHHH | soluble
MSLIYGFIRDHSNEFAVEKMCQVLNVSRSGYYSWLNRKPGKRELTNKKLKLKIAEIYWQTRGRCGSPRIHKQLKKEGYHYNIKRIERLMRIMGLKAIQKRKFKRTTNSDNNLPLKNNLLKRNFSVTQPDKVWVSDITYIPTKEGWLYLSVVIDLYSRKVVGWSMDNHMTKRLVIDALEMAVLNRNPSRGLIFHSDRGSQYASHDFQKTLWKYGIISSMSRKGDCWDNAVAESFFATLKTELIFHNKYQSRAQAKRDIFEYIEIFYNRIRLHSSLDYKSPEDYEKERKTSKEGHHHHHH | not soluble
MSLKAIFWDMDGTMVDSEPQWGIATYELSEAMGRRLTPELRELTVGSSLPRTMRLCAEHAGITLSDADYERYRAGMFARVHELFDESLVPNPGVTELLTELKALEIPMLVTTNTERDLATRSVAAVGNEFFIGSIAGDEVPTAKPAPDMYLEAARRVGFDPSECLVFEDSYNGMLGAVTAGCRVIGLHPEEVQAPEGVVPLRSLHGKNSFEGVTAEMVTAWYHQIEPAGVAKEGHHHHHH | soluble
MSLKALVLTGTKQFEMQDVTTPTVKDDEVLVNTAYAGICGTDRALYAGLPGSADAVPPIVLGHENSGIVAAIGRNVTNVKVGDRVTVDPNIYCGECEYCRTDRPELCDNLSAVGVTRDGGLEESFTAPASVVYPIPDSVSLKAAATVEPISCAVHGVKLLDLTPYQKALVIGDGFMGQLFVQLLQAYGVHQVDFAGIVDEKLAFNKEKFGVTNTYNTTRDSIPADYDVVIEAVGLPQTQEQAVEATKKGAQVLMFGVGKPNQTFSMNTYEVYQKQLKIQGAFINPYAFEDSIALLASGQLDVESLISHEVSLEQVEDVLNGKVEHVSKAVVKVSEGHHHHHH | soluble
MSLKAPVDFEQEVAPLLSQRCVSCHSPNIKKGELSLAGPEDLLANGYVVPGDPAGSYLLEVVSPAGDDPAAMPKLGDALAEPEVALLRRWIEQGAVWPDGFVIREASKADRSWWSLQPLADIHPPEVAAAPAAWRQNPIDRFVWAKLSEANLKPNSPADRRTLIRRATFDLTGLPPTAEEIDTFVASDSPDAYPQLIDRMLASPRYGERWGRHWLDVIRFGESRGFERNQIITNLWPFRDYVIRSINEDKPFDQFIREHLAGDVIAPNTPQVEVGSAFLVAGPYDDVGNQDPAQAAQIRANTIDEMIRASSEAFLGLTIGCARCHDHKFDVISQRDYYAMYATFAGVKHGERAVATSEQREGHHHHHH | not soluble
MSLKDYRLFLIDLDGTIYRGKETIESGVRFVKRLDEAGLDYLFLTNNTTRTPQMVADKLAGHGVKTDVSKIYTPSMATASYILEKEAKRPIGVYIIGQIGLWKEILDRPEFYYDEENPDYVIVGMDTDLTYHKLMVATRCIHRGAVFIGTNSDQNLPVGKELRPGNGSICAALEVASGQKPLFIGKPEAIIVNRALDLAGVKAEEALIVGDNYPTDIMAGINSGVDTLLTLTGVTQKADLAGLTPPTYLVNDLDEFSEGHHHHHH | soluble
MSLKEIGPNSLLLEDSHSLSQLLKKNYRWYSPIFSPRNVPRFADVSSITESPETLKAIRDFLVERYRTMSPAPTHILGFDARGFLFGPMIAVELGIPFVLMRKADKNAGLLIRSEPYEKEYKEAAPEVMTIRHGSIGKNSRVVLIDDVLATGGTALSGLQLVEASGAEVVEMVSILTIPFLKAAERIHSTAGGRYKNVRFIGLLSEDVLTEANCGDLNDYTGPRVLSCSDLLVNQ | soluble
MSLKEPRWRDPELPEVLAMLRHPVDPVKANAAAYLQHLCFENEGVKRRVRQLRGLPLLVALLDHPRAEVRRRACGALRNLSYGRDTDNKAAIRDCGGVPALVRLLRAARDNEVRELVTGTLWNLSSYEPLKMVIIDHGLQTLTHEVIVPHSGWEREPNEDSKPRDAEWTTVFKNTSGCLRNVSSDGAEARRRLRECEGLVDALLHALQSAVGRKDTDNKSVENCVCIMRNLSYHVHKEVPGADRYQEAEPGPLGSAVGSQRRRRDDASCFGGKKAKEEWFHQGKKDGEMDRNFDTLDLPKRTEAAKGFELLYQPEVVRLYLSLLTESRNFNTLEAAAGALQNLSAGNWMWATYIRATVRKERGLPVLVELLQSETDKVVRAVAIALRNLSLDRRNKDLIGSYAMAELVRNVRNAQAPPRPGACLEEDTVVAVLNTIHEIVSDSLDNARSLLQARGVPALVALVASSQSVREAKAASHVLQTVWSYKELRGTLQKDGWTKARFQSAAATAKGPKEGHHHHHH | not soluble
MSLKFHSPYLPLIKLIIVVKTPLELITDNLLPTIKVLIAKKLRELGMSQNRIAILLGVTQPAVKQYLDEDENFQYEKLRELGLKDEEIEDITQDLVNILNKNDTKSAMYYITDIGLRYLSELKFCKFHKENDKYIPQDCDICRYIYRQNEEERMEIALSMLQNEFVTPLIPEVLSNLAFARKNPKGINDVLAVEGRITKVKGIPTPASNPSWGSSKHLATILLKIMQKDPSIRSIMNIKYDKKIDEALHFLNFRIVYVGPSDENDDESISNLIYSAFYSGIDCVVHLGGKGLEPITYVLGKDPVEVVKKVIEIGKKYRELTENEGHHHHHH | soluble
MSLKFTAIDFETANEKRNSPCSIGIVVVKDGHVVEKSHHLIRPKEMRFMPINIGIHGIRPAMVEKEPEFDKVWEKIKHYFDDTLVIAHNASFDISVLRKSAELYNIELPEFNYICTMKLARNFYKGIENAKLNTVNNFLGYEFRHHDALYDALACSNIMLSISKELKCKDITEISKLLGVTVGKVDSKGYKPSQTKGIAVRTSDRIYFSKKKSAFERLKADEFKNEVVVFTGRLDSMSRDEAMGLVRRLGGTAGSSVTKKTTILVTNMKNIKNLRREEMSNKLKRASDLNARGQNIKFLNEEEFLKIKEGHHHHHH | soluble
MSLKGGYAVVDFKVPNERDNASTTKLEVNFPTDHPLASVMPQPVPGWKAEVTKAKPAKPLESHGKQITEVVTKVTWTADGKGVEPGYFQKFPVSIGALPEDADQLVFKAIQTYSNKEVVRWIEVPQEGQEEPETPAPVLKLSAAEDDAHGASEGHHHHHH | soluble
MSLKGTPGNVPAARTGIEITPAHRAFFHALPKIELHCHLLGAVRHDTFVALAERSGAPIERAEIDAFYARGEKPVGVLHVLRALDRYLLTQPDDLRRIAYEYLEDAAAYNVRHAEFFWNPTGTVHVSGIAYADAQAAIVTGIRDAARDFGIGARLIPSIDREQDPDEAVAIVEWMKANRADEVAGLGIDYRENDRPPELFWKAYRNARAAGFRTTAHAGEFGMPWRNVETAVDLLQVDRVDHGYTIVDNPELCARYAERGIVFTVVPTNSYYLRTLPPEQWAERHPMRKMPGLGLKIHPNTDDPTLHKVNPSEAWELMFSHFGFTVAELKQFMLNGIDGAWVDDTTKAAWRAAWAPEFDVLAATLAAGEGHHHHHH | soluble
MSLKGTYEKSIHIVKKNKYKTIDVVFGNLKEGIPLAEKSINHGTRIIISRGGTYNMLKATYNIPIVEIKVDAYDIIKSYKEVKNSNEPFGIIGFNNVIYGFDIIEEILNKKITMIEIEKEEEIYDAIEKYRKKGINTYIGDTTVAHIVKRLNCKGILIESREENILRAIQQAEQILEATKDEQKREGHHHHHH | not soluble
MSLKHPDPAQKVEGTTATTPTKVAAFFDLDKTIIAMSSTYAYGREFMNSGLISPVEALQLSLAQATYMFAGHTSEQMDNTRDQLTAMIRGWEVQQVRSIAEETMHSVVTPTIYAEARELIEHHQELGHDVIIISASVKELVEPIARELGVHKTVTTVLEAHDGMYTGEVLFYCKGDAKAQSILDLAEANNYDLSLSFAYSDSFTDLPMLEAVGNPAAVNPDRALKKIALEQGWKILSFKNPEPLFQEGHHHHHH | soluble
MSLKIAIVNDMPMAVEALRRALAFDPSHEVVWVATNGAEAVKYCAELTPDLILMDLIMPVMDGVEATRRIMAESPCAIVIVTVDRQQNVHRVFEAMGHGALDVVDTPALGAGNAQEAAAPLLRKILNIGWLIGQEGHHHHHH | not soluble
MSLKIDAVDLFYLSMPEVTDAADGSQDALLVRVAAGGHIGWGECEAAPLPSIAAFVCPKSHGVCRPVSDSVLGQRLDGPDDIARIAALVGYNSMDLLQAPHMLSGIEMALWDLLGRRLSAPAWALLGYSASHGKRPYASLLFGDTPQETLERARAARRDGFAAVKFGWGPIGRGTVAADADQIMAAREGLGPDGDLMVDVGQIFGEDVEAAAARLPTLDAAGVLWLEEPFDAGALAAHAALAGRGARVRIAGGEAAHNFHMAQHLMDYGRIGFIQIDCGRIGGLGPAKRVADAAQARGITYVNHTFTSHLALSASLQPFAGLEADRICEYPAAPQQLALDITGDHIRPDAEGLIRAPEAPGLGLQVAASALRRYLVETEIRIGGQLIYRTPQLEGHHHHHH | soluble
MSLKIILSIFLAFFLSACGVKLSLPKEVDLTQEQMKDLNLTYDWYRSYDNAKLNEFLNFVLLNNSDINIARKTLLSALARADLIDYDLYPTLSGNLGFGADKDLNSGKQSKNFNNSLNLSYELDIYGKLRDSASASEFSAKASAYDLENLKISMINTALNDVFELAYFNDVDKLLRAYLSNLEQMKELYNYKYKLGKIEELDLLNIEQSLLRAKQNLLSNDQNRNLLIKNLQDLLARQEGFAYIEYFKTLSEGHHHHHH | soluble
MSLKIKALLLDIDGTMVFKGHAIPGAAEAIEAARMAGLQLRFLTNITGQLPSTIAEDLQRHGINVRAEEIHTASTSCARYLKSLGDVSCFFLMPESVNSMFEGIARDHVSPDVVVIGDIGESFDYACLNQAFGYLHKGARLVVPHKNLFWFDPRGVRLDCGAFILGLEAASGKQALVTGKPSPVFFTSVMDSLGVKPSQTMIIGDDLLTDIAAAQHLEVAHALVLTGKGASYTESDVPRPERLWPSIAELSRFLAQSGHNTEGHHHHHH | soluble

— the DeepSol protein solubility set
